The data set is described as follows: yeast display, Sf9 membrane polyspecificity reagent, FACS + sequencing; frameworks hold sequencing errors. In a few lines: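 A nanobody's polyreactivity label depends on the gate it was sorted from. Yeast display cells were stained with 10% biotinylated, detergent-solubilized Sf9 membrane reagent for 1 hour at 4 °C, enriched on streptavidin microbeads and sorted by FACS. The low and high (top ~1%) gates were set on anti-HA fluorescence for expression and streptavidin fluorescence for reagent binding.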
In the case of “QVQLVESAAGLVQAGGSLSLSCAASGSILQSYAMGWYRQAPGKERELVAAISGSGGSTYYADSVKGRFTISRDNAKNTVYLQMNSLKPEDTAVYYCAKGPRYRTSRGEFGYWGQGTQVTLSS”, the “polyreactivity (PSR sort gate)” value was “low polyreactivity”. In the case of “QVQLVESAARLVQAGGSLRLSCAASGFTFKKYAMGWYRQAPGKARELVASITWSGGSTSYADSVKGRFTISRDTAKNTVYLLMNSLKPEDTAVYYCAAATFVYRLRYNRFDYWGQGTQETVSS” it was “high polyreactivity”; in that of “QVQLVESAGALVQAGGSLRLSCAASGSTYWRYTMGWYRQAPGKERELVAAISTRGGSTTYADSVKGRFTISRDNAKNTVYLQMNSLKPEDTAVYYCAAGRQYRFDFWGQGTQVTVSS”, “high polyreactivity”; in that of “QVQLVESAGGLFQAGGSLRLSCAASGRIFGWNAMGWYIQATGKESELDAVITSGGITYYADSVKGRFTISPDNAKNTVCLQMISLKPEDTAVYYCAARGTEFYTYYRYYYWGQGTKVTVSS”, “high polyreactivity”. In the case of “QVQLVESAGGLVQAGGRLRLSCPPSGSTFAYNAMGWYRPEPGKERELVADITSGGSTKYADSVKVRFTISRDNAKNTVFLQMNSLKPEDTAVYYCAAVSVISGDFNYWGQGTEVTVSS” it was “low polyreactivity”; in that of “QVQLVESAGGLVQAGGRLSLSCAASGRTYKKYAMGWYRPEPGKERELVAAITGSGGSTYYADSVKGRFTISRDNAKNTVYLQMNSLKPEDTAVYYCAAYAYGVWDSQDGGNYWGLGTQVTVSS”, “low polyreactivity”; in that of “QVQLVESAGGLVQAGGSHRLSCAASVLIFRYYAMGWFRQAPGKEWELFAAISNSGGGTYYADSVKGRFTISRDNAKNTVYLLMNSLIPVDTAVYYCAARHAFCFRFVSWGLGTQVTVSS”, “high polyreactivity”. In the case of “QVQLVESAGGLVQAGGSISLSCAASGIIFRYYAMGSYRQAPGKERELVAVITGRGGGTYYADSVKGRFTISRDNAKNTVYLQMNSLKPEDTAVYYCAKDFTGHYPKGFDYWGQGTQVTVSS” it was “low polyreactivity”; in that of “QVQLVESAGGLVQAGGSLRISCAASGRNFSTNAMGWYRQAPGKEMELVAAITSRGGSTYYADSVKGRFTISRDNAKNTVYLQMNSLIPEDPAVYYCAVDPLYYKTHYGTLGYYYWGQGTQVTVSS”, “low polyreactivity”.

For “QVQLVESAGGLVQAGGSLRITCAASGINFTFYTMGWYRQAPGKERELVAAITWSGGSTNYADSVKGRFTISRDNAKNTVYLQMNSLKPEDTAVYYCAAQGYPQSPPWEDYWGQGTQVTVSS”, the “polyreactivity (PSR sort gate)” value is listed as “low polyreactivity”. With “QVQLVESAGGLVQAGGSLRLICAASGRTTPIYALGWYRQAPGKERELVASITRGTRTNYADSVKGRFTISRDNAKTTVYLQMNSLKPEDTAVYYCAAVSYSYSLNPYDYWGQGTQVTVSS”, the “polyreactivity (PSR sort gate)” value is “low polyreactivity”. For “QVQLVESAGGLVQAGGSLRLICAASGSNFRRYAMGWYRQAPGKERELVAAITENTTSTNYADSVKGRFTISRDNAKNTVYLQMNSLKPEDTAVYYCAAETFATSGEMYYWGQGTQVTVSS” the value was “low polyreactivity”; for “QVQLVESAGGLVQAGGSLRLICADSGSIFSNDAMGWYTQAPGKERELVAAITNGVSTNYADSVKGRFTISRDNAKNTVYLPMNSLIPEDTAVYYCAAVSRSYYNSYNYWGQGTQVTVSS”, “high polyreactivity”.

Turning to “QVQLVESAGGLVQAGGSLRLSCAASGFIINKYTMGWYRQAPGKERELVAAITWSGGTTYYADSVKGRFTISRDNAKNTVYLQMNSLKPEDTAVYYCAAYYYRGRVGAYDYWGQGTQVTVSS”, the “polyreactivity (PSR sort gate)” value is “high polyreactivity”. For “QVQLVESAGGLVQAGGSLRLSCAASGFTFGKNSMGWYRQAPGKERELVAAISGSGSRTYYADSVKGRFTISRDNAKNTVYLQMNSLKPEDTAVYYCAAAVTGSYASDYWGQGTQVTVSS”, the “polyreactivity (PSR sort gate)” value was “high polyreactivity”. Turning to “QVQLVESAGGLVQAGGSLRLSCAASGGIFDRYAMGWYRQAPGKERELVAAITSGGSTNYADSVKGRFTISRDNAKNTVYLQMNSLKPEDTAVYYCNADLGILSGVDEGPTFREYDYWGQGTQVTLSS”, the “polyreactivity (PSR sort gate)” value is “low polyreactivity”. For “QVQLVESAGGLVQAGGSLRLSCAASGGTFSTYAIGWYRQAPGKEREFVAAITRSGTSTYYADSVKGRFTISRDNAKNTVYLQMNSLKPEDTAVYYCAAGVYSFRYDYWGQGTQVTVSS” the value was “low polyreactivity”. In the case of “QVQLVESAGGLVQAGGSLRLSCAASGITFWYYTMGWYRQAPGKERELVAAINGRGGSTYYADSVKGRFTISRDNAKNTVYLQMNSLKPEDTAVYYCNAVGIWFQIRLIVPYDYWGQGTQVTVSS” it was “low polyreactivity”; in that of “QVQLVESAGGLVQAGGSLRLSCAASGITIVRYARGWSRQAPGKERELVAAINRSGGSTYDADSVKGRFTISRDNAKNTVYLQMNSLKPEDTAVYYCAARLYGKYDPPGYYYWGQGTQVTVSS”, “high polyreactivity”. Take “QVQLVESAGGLVQAGGSLRLSCAASGLIFYSYAMGWYRQAPGKERELVASITTRGSSTYYADSVKGRFTISRDNAKNTVYLQMNSLKPEDTAVYYCAADRLYYRYPPDTGYGYWGQGTQVTVSS”: the “polyreactivity (PSR sort gate)” value is listed as “low polyreactivity”.

Regarding “QVQLVESAGGLVQAGGSLRLSCAASGNMLIGKVMGMYRQAPGKERELVAAITSGGDTYYADSVKGRYTISRDNAKNTVYLQMNSLKPEDTAVYYCAADRPGQPKYEYWGQCTQVTVSS”, the “polyreactivity (PSR sort gate)” value was “low polyreactivity”.

For the sequence “QVQLVESAGGLVQAGGSLRLSCAASGPTFAYNDMGWSRQAPGKERELVAAISWSDGTTYYADSVKGRFTISRDNAKNTVYLQMNSLKPEVTAVYYCAGESYPSEVASYVSEYDYWGQGTQVTVSS”, the “polyreactivity (PSR sort gate)” value is “low polyreactivity”. In the case of “QVQLVESAGGLVQAGGSLRLSCAASGRIFRYYAMGWYRQAPGKERELFAAISRSGASTYYADSVKGRFTISRDNAKNTVYLQMNSLIPEDTAVYYCAAGYWPGYSQTYRGGYWGQCTQVTVSS” it was “high polyreactivity”. In the case of “QVQLVESAGGLVQAGGSLRLSCAASGRIFRYYVMGWYRQAPGKEREFVASISGRGASTYYADSVKGRFTISRDNAKNTVYLQMNSLKPEDTAVYYCNADVWLLSYFPEYDYWGQGTQVTVSS” it was “low polyreactivity”; in that of “QVQLVESAGGLVQAGGSLRLSCAASGRIFSYKAMGWYRQAPGKQRELVAAISYSGGRTYYADSVKGRFTISRDNAKNTVYLQMYSLKPEDTAVYYCAAEAHLAGFYRYYGGYGYDYWGQGTQVTVSS”, “high polyreactivity”; in that of “QVQLVESAGGLVQAGGSLRLSCAASGRIFYYNAMGWYRQAPGKERELVAGITSRGGSTYADSVKGRFTISRDNAKNTVYLQMNSLKPEDTAVYYCAAVYRLWGKDYDYWGQGTQVTVSS”, “high polyreactivity”. In the case of “QVQLVESAGGLVQAGGSLRLSCAASGRILVRNAMGWYRQAPGTERELVAAIRRGTSTNYADSVKGRFTISRDNAKNTVYLQMNSLKPEDTAVYYCAVRAASPYLDGAWRRRYDYWGQGTQVTVSS” it was “low polyreactivity”; in that of “QVQLVESAGGLVQAGGSLRLSCAASGRTFAYNAMGWYRQAPGKERELVADITSGGSTYYADSVKWRFTISRDNAKNTVYLQMNSLKPEDTAVYYCNKLYRGGYGYWGQGTQVTVSS”, “high polyreactivity”. Regarding “QVQLVESAGGLVQAGGSLRLSCAASGRTFGKYAMGWYRQAPGKERELVAAITGGGGTKYADSVKGRFTISRDNAKNTVYLQKNSLKPEDTAVYYCAAASGSRRHGYWGQGTQVTVSS”, the “polyreactivity (PSR sort gate)” value is on record as “high polyreactivity”.

In the case of “QVQLVESAGGLVQAGGSLRLSCAASGRTLRGYAMGWYRQAPGKERELVAAITWSGGSTYYADSVKGRFTISRDNAKNTVYLQMNSLKPEDTAVYYCNARSYPDLYDYWGQGTQVTVSS”, the “polyreactivity (PSR sort gate)” value was “high polyreactivity”.
